According to patent US20230050380A1 (CHIOME BIOSCIENCE, published 2023):

T1: full-length hCDCP1 with N-terminal c-Myc tag (expression vector GS01), on Ba/F3-hCDCP1 cells or … (human, UniProt Q9H5V8 30-836)
T1 construct: also called human CDCP1; hCDCP1 forced expression cells
T1 sequence: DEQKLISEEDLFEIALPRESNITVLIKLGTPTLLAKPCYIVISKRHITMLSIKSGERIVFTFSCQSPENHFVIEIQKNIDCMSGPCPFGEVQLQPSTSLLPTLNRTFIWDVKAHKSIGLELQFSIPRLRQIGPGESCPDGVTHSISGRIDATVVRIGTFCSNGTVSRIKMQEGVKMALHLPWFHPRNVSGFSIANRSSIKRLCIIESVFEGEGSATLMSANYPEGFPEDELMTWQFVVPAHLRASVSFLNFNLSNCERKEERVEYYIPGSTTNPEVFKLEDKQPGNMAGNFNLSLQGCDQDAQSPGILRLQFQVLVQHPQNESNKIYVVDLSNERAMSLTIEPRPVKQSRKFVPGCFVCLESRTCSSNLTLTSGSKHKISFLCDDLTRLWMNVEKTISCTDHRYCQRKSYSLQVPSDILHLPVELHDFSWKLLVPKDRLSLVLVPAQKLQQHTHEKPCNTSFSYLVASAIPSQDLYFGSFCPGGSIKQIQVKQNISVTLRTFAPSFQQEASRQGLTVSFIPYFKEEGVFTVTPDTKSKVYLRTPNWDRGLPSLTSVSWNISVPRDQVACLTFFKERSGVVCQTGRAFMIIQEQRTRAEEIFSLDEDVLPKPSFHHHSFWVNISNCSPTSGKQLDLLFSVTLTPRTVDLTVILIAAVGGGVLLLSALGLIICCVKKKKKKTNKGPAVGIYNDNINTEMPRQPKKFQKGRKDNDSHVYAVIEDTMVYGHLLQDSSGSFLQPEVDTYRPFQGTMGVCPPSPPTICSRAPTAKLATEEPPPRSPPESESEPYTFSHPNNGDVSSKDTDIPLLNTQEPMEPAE


Biological target: T1, full-length hCDCP1 with N-terminal …
Assay: flow cytometry on Ba/F3-hCDCP1 cells

binding result	Binder
binds	mh14A063HCori/LCv1 (antibody, human IgG1, kappa, V domains shown, mouse-human chimeric antibody, human IgG1/kappa constant regions) VH: EVQLQESGGGLVQPGGSLKLSCAASGFTFSSYTMSWVRQTPEKRLEWVAYISNGGGSTYYPDTVKGRFTISRDNAKNTLYLQMSSLKSEDTAMYYCARYDLGFAYWGQGTLVTVSS VL: NIVLTQSPASLAVSLGQRATISCRASESVDSYGNSFLHWYQQKPGQPPKLLIFLASNLESGVPARFSGSGSRTDFTLTIDPVEADDAATYYCQQNNEDPWTFGGGTNLEIKR
binds	mh14A063HCv1/LCori (antibody, human IgG1, kappa, V domains shown, mouse-human chimeric antibody, human IgG1/kappa constant regions) VH: EVQLQESGGGLVQPGGSLKLSCAASGFTFSSYTMSWVRQTPEKRLEWVAYISSGGGSTYYPDTVKGRFTISRDNAKNTLYLQMSSLKSEDTAMYYCARYDLGFAYWGQGTLVTVSS VL: NIVLTQSPASLAVSLGQRATISCRASESVDSYGNSFMHWYQQKPGQPPKLLIFLASNLESGVPARFSGSGSRTDFTLTIDPVEADDAATYYCQQNNEDPWTFGGGTNLEIKR
binds	mh14A063HCv2/LCv1 (antibody, human IgG1, kappa, V domains shown, mouse-human chimeric antibody, human IgG1/kappa constant regions) VH: EVQLQESGGGLVQPGGSLKLSCAASGFTFSSYTMSWVRQTPEKRLEWVAYISNAGGSTYYPDTVKGRFTISRDNAKNTLYLQMSSLKSEDTAMYYCARYDLGFAYWGQGTLVTVSS VL: NIVLTQSPASLAVSLGQRATISCRASESVDSYGNSFLHWYQQKPGQPPKLLIFLASNLESGVPARFSGSGSRTDFTLTIDPVEADDAATYYCQQNNEDPWTFGGGTNLEIKR
binds	mh14A063HCv1/LCv1 (antibody, human IgG1, kappa, V domains shown, mouse-human chimeric antibody, human IgG1/kappa constant regions) VH: EVQLQESGGGLVQPGGSLKLSCAASGFTFSSYTMSWVRQTPEKRLEWVAYISSGGGSTYYPDTVKGRFTISRDNAKNTLYLQMSSLKSEDTAMYYCARYDLGFAYWGQGTLVTVSS VL: NIVLTQSPASLAVSLGQRATISCRASESVDSYGNSFLHWYQQKPGQPPKLLIFLASNLESGVPARFSGSGSRTDFTLTIDPVEADDAATYYCQQNNEDPWTFGGGTNLEIKR
binds	mh14A063HCv2/LCori (antibody, human IgG1, kappa, V domains shown, mouse-human chimeric antibody, human IgG1/kappa constant regions) VH: EVQLQESGGGLVQPGGSLKLSCAASGFTFSSYTMSWVRQTPEKRLEWVAYISNAGGSTYYPDTVKGRFTISRDNAKNTLYLQMSSLKSEDTAMYYCARYDLGFAYWGQGTLVTVSS VL: NIVLTQSPASLAVSLGQRATISCRASESVDSYGNSFMHWYQQKPGQPPKLLIFLASNLESGVPARFSGSGSRTDFTLTIDPVEADDAATYYCQQNNEDPWTFGGGTNLEIKR
binds	mh14A025HCv24/LCori (antibody, human IgG1, kappa, V domains shown, mouse-human chimeric antibody, human IgG1/kappa constant regions) VH: EVQLQESGAELVRPGALVKLSCKASGFNIKDYYMHWVKQRPEQGLEWIGWIDPEWGNTIYDPKFQGKASITADTSSNTAYLQLSSLTSEDTAVYYCGGLLYAMDYWGQGTSVTVSS VL: DIQMTQTTSSLSASLGDRVTISCRASQDISNYLNWYQQKPDGTVKLLIYFTSRLHSGVPSRFSGSGSGTDYSLTISNLEQEDIATYFCQQGNTLPRTFGGGTKLEIRR
binds	mh14A043HCv2/LCv1 (antibody, human IgG1, kappa, V domains shown, mouse-human chimeric antibody, human IgG1/kappa constant regions) VH: EVQLQESGAELVRPGALVKLSCKASGFNIKDYYMNWVKQRPEQGLEWIGWIDPENANTIYDPKFQGKASITADTSSNTAYLQLSSLTSEDTAVYYCYGSSYRFTYWGQGTLVTVSS VL: QIVLIQSPALMSASPGEKVTMTCSASSSVSYLYWYQQKPRSSPKPWIYLTSNLASGVPARFSGSGSGTSYSLTISSMEAEDAATYYCQQWSSNPFTFGSGTKLEIKR
binds	mh14A043HCv1/LCori (antibody, human IgG1, kappa, V domains shown, mouse-human chimeric antibody, human IgG1/kappa constant regions) VH: EVQLQESGAELVRPGALVKLSCKASGFNIKDYYMNWVKQRPEQGLEWIGWIDPESGNTIYDPKFQGKASITADTSSNTAYLQLSSLTSEDTAVYYCYGSSYRFTYWGQGTLVTVSS VL: QIVLIQSPALMSASPGEKVTMTCSASSSVSYMYWYQQKPRSSPKPWIYLTSNLASGVPARFSGSGSGTSYSLTISSMEAEDAATYYCQQWSSNPFTFGSGTKLEIKR
binds	mh14A043HCv1/LCv1 (antibody, human IgG1, kappa, V domains shown, mouse-human chimeric antibody, human IgG1/kappa constant regions) VH: EVQLQESGAELVRPGALVKLSCKASGFNIKDYYMNWVKQRPEQGLEWIGWIDPESGNTIYDPKFQGKASITADTSSNTAYLQLSSLTSEDTAVYYCYGSSYRFTYWGQGTLVTVSS VL: QIVLIQSPALMSASPGEKVTMTCSASSSVSYLYWYQQKPRSSPKPWIYLTSNLASGVPARFSGSGSGTSYSLTISSMEAEDAATYYCQQWSSNPFTFGSGTKLEIKR
binds	mh14A043HCv2/LCori (antibody, human IgG1, kappa, V domains shown, mouse-human chimeric antibody, human IgG1/kappa constant regions) VH: EVQLQESGAELVRPGALVKLSCKASGFNIKDYYMNWVKQRPEQGLEWIGWIDPENANTIYDPKFQGKASITADTSSNTAYLQLSSLTSEDTAVYYCYGSSYRFTYWGQGTLVTVSS VL: QIVLIQSPALMSASPGEKVTMTCSASSSVSYMYWYQQKPRSSPKPWIYLTSNLASGVPARFSGSGSGTSYSLTISSMEAEDAATYYCQQWSSNPFTFGSGTKLEIKR
binds	mh14A043HCori/LCv1 (antibody, human IgG1, kappa, V domains shown, mouse-human chimeric antibody, human IgG1/kappa constant regions) VH: EVQLQESGAELVRPGALVKLSCKASGFNIKDYYMNWVKQRPEQGLEWIGWIDPENGNTIYDPKFQGKASITADTSSNTAYLQLSSLTSEDTAVYYCYGSSYRFTYWGQGTLVTVSS VL: QIVLIQSPALMSASPGEKVTMTCSASSSVSYLYWYQQKPRSSPKPWIYLTSNLASGVPARFSGSGSGTSYSLTISSMEAEDAATYYCQQWSSNPFTFGSGTKLEIKR
binds	h12A041VH1/VL (antibody, human IgG1, kappa, V domains shown, humanized antibody, human IgG1/kappa constant regions; also called h12A041VH1/VL-biotin (biotinylated form)) VH: QVTLRESGPALVKPTQTLTLTCTFSGFSLSTSGMGVSWIRQPPGKALEWLAHIYWDDDKRYNPSLKSRLTISKDTSKNQVVLTMTNMDPVDTATYYCARSGSYYGSSLDSWGQGTTVTVSS VL: DIVMTQSPLSLPVTPGEPASISCRSSQSIVHSSGNTYLEWYLQKPGQSPQLLIYKVSNRFSGVPDRFSGSGSGTDFTLKISRVEAEDVGVYYCFQGSHVPWTFGGGTKVEIKR
binds	h12A041VH1/VLA (antibody, human IgG1, kappa, V domains shown, humanized antibody, human IgG1/kappa constant regions; also called h12A041VH1/VLA-biotin (biotinylated form); h12A041VH1NLA-biotin) VH: QVTLRESGPALVKPTQTLTLTCTFSGFSLSTSGMGVSWIRQPPGKALEWLAHIYWDDDKRYNPSLKSRLTISKDTSKNQVVLTMTNMDPVDTATYYCARSGSYYGSSLDSWGQGTTVTVSS VL: DIVMTQSPLSLPVTPGEPASISCRSSQSIVYSSGNTYLEWYLQKPGQSPQLLIYKVSNRFSGVPDRFSGSGSGTDFTLKISRVEAEDVGVYYCFQGSHVPWTFGGGTKVEIKR
binds	h12A041VH2/VLA (antibody, human IgG1, kappa, V domains shown, humanized antibody, human IgG1/kappa constant regions) VH: QVTLRESGPALVKPTQTLTLTCTFSGFSLSTSGMGVSWIRQPPGKGLEWLAHIYWDDDKRYNPSLKSRLTISKDTSKNQVVLTMTNMDPVDTATYYCARSGSYYGSSLDSWGQGTTVTVSS VL: DIVMTQSPLSLPVTPGEPASISCRSSQSIVYSSGNTYLEWYLQKPGQSPQLLIYKVSNRFSGVPDRFSGSGSGTDFTLKISRVEAEDVGVYYCFQGSHVPWTFGGGTKVEIKR
binds	h12A041VH1A/VLB (antibody, human IgG1, kappa, V domains shown, humanized antibody, human IgG1/kappa constant regions) VH: QVTLRESGPALVKPTQTLTLTCTFSGFSLSTFGMGVSWIRQPPGKALEWLAHIYWDDDKRYNPSLKSRLTISKDTSKNQVVLTMTNMDPVDTATYYCARSGSYYGSSLDSWGQGTTVTVSS VL: DIVMTQSPLSLPVTPGEPASISCRSSQNIVHSDGNTYLEWYLQKPGQSPQLLIYKVSNRFSGVPDRFSGSGSGTDFTLKISRVEAEDVGVYYCFQGSHVPWTFGGGTKVEIKR
binds	h12A041VH1/VLB (antibody, human IgG1, kappa, V domains shown, humanized antibody, human IgG1/kappa constant regions; also called h12A041VH1/VLB-biotin (biotinylated form)) VH: QVTLRESGPALVKPTQTLTLTCTFSGFSLSTSGMGVSWIRQPPGKALEWLAHIYWDDDKRYNPSLKSRLTISKDTSKNQVVLTMTNMDPVDTATYYCARSGSYYGSSLDSWGQGTTVTVSS VL: DIVMTQSPLSLPVTPGEPASISCRSSQNIVHSDGNTYLEWYLQKPGQSPQLLIYKVSNRFSGVPDRFSGSGSGTDFTLKISRVEAEDVGVYYCFQGSHVPWTFGGGTKVEIKR
binds	h12A041VH1A/VL (antibody, human IgG1, kappa, V domains shown, humanized antibody, human IgG1/kappa constant regions; also called h12A041VH1A/VL-biotin (biotinylated form)) VH: QVTLRESGPALVKPTQTLTLTCTFSGFSLSTFGMGVSWIRQPPGKALEWLAHIYWDDDKRYNPSLKSRLTISKDTSKNQVVLTMTNMDPVDTATYYCARSGSYYGSSLDSWGQGTTVTVSS VL: DIVMTQSPLSLPVTPGEPASISCRSSQSIVHSSGNTYLEWYLQKPGQSPQLLIYKVSNRFSGVPDRFSGSGSGTDFTLKISRVEAEDVGVYYCFQGSHVPWTFGGGTKVEIKR
binds	h12A041VH2/VL (antibody, human IgG1, kappa, V domains shown, humanized antibody, human IgG1/kappa constant regions) VH: QVTLRESGPALVKPTQTLTLTCTFSGFSLSTSGMGVSWIRQPPGKGLEWLAHIYWDDDKRYNPSLKSRLTISKDTSKNQVVLTMTNMDPVDTATYYCARSGSYYGSSLDSWGQGTTVTVSS VL: DIVMTQSPLSLPVTPGEPASISCRSSQSIVHSSGNTYLEWYLQKPGQSPQLLIYKVSNRFSGVPDRFSGSGSGTDFTLKISRVEAEDVGVYYCFQGSHVPWTFGGGTKVEIKR
binds	h12A041VH1A/VLA (antibody, human IgG1, kappa, V domains shown, humanized antibody, human IgG1/kappa constant regions) VH: QVTLRESGPALVKPTQTLTLTCTFSGFSLSTFGMGVSWIRQPPGKALEWLAHIYWDDDKRYNPSLKSRLTISKDTSKNQVVLTMTNMDPVDTATYYCARSGSYYGSSLDSWGQGTTVTVSS VL: DIVMTQSPLSLPVTPGEPASISCRSSQSIVYSSGNTYLEWYLQKPGQSPQLLIYKVSNRFSGVPDRFSGSGSGTDFTLKISRVEAEDVGVYYCFQGSHVPWTFGGGTKVEIKR
